Assay results published in article PMC10540216, “Activity Guided Azide-methyllysine Photo-trapping for Substrate Profiling of Lysine Demethylases” (Journal of the American Chemical Society, 2023).

B1: DDX3X_HUMAN (protein, UniProt O00571 2-662, looked up)
ATP-dependent RNA helicase …: SHVAVENALGLDQQFAGLDLNSSDNQSGGSTASKGRYIPPHLRNREATKGFYDKDSSGWSSSKDKDAYSSFGSRSDSRGKSSFFSDRGSGSRGRFDDRGRSDYDGIGSRGDRSGFGKFERGGNSRWCDKSDEDDWSKPLPPSERLEQELFSGGNTGINFEKYDDIPVEATGNNCPPHIESFSDVEMGEIIMGNIELTRYTRPTPVQKHAIPIIKEKRDLMACAQTGSGKTAAFLLPILSQIYSDGPGEALRAMKENGRYGRRKQYPISLVLAPTRELAVQIYEEARKFSYRSRVRPCVVYGGADIGQQIRDLERGCHLLVATPGRLVDMMERGKIGLDFCKYLVLDEADRMLDMGFEPQIRRIVEQDTMPPKGVRHTMMFSATFPKEIQMLARDFLDEYIFLAVGRVGSTSENITQKVVWVEESDKRSFLLDLLNATGKDSLTLVFVETKKGADSLEDFLYHEGYACTSIHGDRSQRDREEALHQFRSGKSPILVATAVAARGLDISNVKHVINFDLPSDIEEYVHRIGRTGRVGNLGLATSFFNERNINITKDLLDLLVEAKQEVPSWLENMAYEHHYKGSSRGRSKSSRFSGGFGARDYRQSSGASSSSFSSSRASSSRSGGGGHGSSRGFGGGGYGGFYNSDGYGGNYNSQGVDWWGN
B2: CALD1_HUMAN (protein, UniProt Q05682 1-793, looked up)
Caldesmon: MDDFERRRELRRQKREEMRLEAERIAYQRNDDDEEEAARERRRRARQERLRQKQEEESLGQVTDQVEVNAQNSVPDEEAKTTTTNTQVEGDDEAAFLERLARREERRQKRLQEALERQKEFDPTITDASLSLPSRRMQNDTAENETTEKEEKSESRQERYEIEETETVTKSYQKNDWRDAEENKKEDKEKEEEEEEKPKRGSIGENQVEVMVEEKTTESQEETVVMSLKNGQISSEEPKQEEEREQGSDEISHHEKMEEEDKERAEAERARLEAEERERIKAEQDKKIADERARIEAEEKAAAQERERREAEERERMREEEKRAAEERQRIKEEEKRAAEERQRIKEEEKRAAEERQRIKEEEKRAAEERQRARAEEEEKAKVEEQKRNKQLEEKKHAMQETKIKGEKVEQKIEGKWVNEKKAQEDKLQTAVLKKQGEEKGTKVQAKREKLQEDKPTFKKEEIKDEKIKKDKEPKEEVKSFMDRKKGFTEVKSQNGEFMTHKLKHTENTFSRPGGRASVDTKEAEGAPQVEAGKRLEELRRRRGETESEEFEKLKQKQQEAALELEELKKKREERRKVLEEEEQRRKQEEADRKLREEEEKRRLKEEIERRRAEAAEKRQKMPEDGLSDDKKPFKCFTPKGSSLKIEERAEFLNKSVQKSSGVKSTHQAAIVSKIDSRLEQYTSAIEGTKSAKPTKPAASDLPVPAEGVRNIKSMWEKGNVFSSPTAAGTPNKETAGLKVGVSSRINEWLTKTPDGNKSPAPKPSDLRPGDVSSKRNLWEKQSVDKVTSPTKV
B3: CX057_HUMAN (protein, UniProt Q6NSI4 1-855, looked up)
RPA-related protein RADX: MSGESGQPEAGPSHAGLDWPNPERNRAGVPGGVIRRAGSQGPRSWIQKVLEQIMDSPRQCVTPSEVVPVTVLAVQRYLLEDEPRDTVPKPPLYCYDVTISDGVYQEKCYLDPSLNSLVYQNILKVGIQMRISRVSCLYNEKRIGQGILCIDNVHCGETSDSISLETPFRNRAHQEKPERPLRGGKSHYLALWNNEDPYGDIWLTDKQPEEHNFSDTKIISLSHLEMTWTNRRNFPALLVRILHKSKLRYYGKPDKKMIEPYQTFLEVADSSGTVSVIMWNALCPEWYKSLRVGLVLLLQDYSVKKSYPFRIQPVPVDPQIKLISTMEICLNLRDPPTNIIIIPEKQVKPEWRLPKLNHRFTTRSELDDMPENCICDVIGLLVFVGRVQRSKKKENREDFWSYRWIHIADGTSEQPFIVELFSTSQPEIFENIYPMAYFVCTQLKVVRNDNQVPKLLYLTTTNESGVFITGHRGQPYTYDAKVKNFIQWIRTKSDSGEQKNMVIGGYYPYPPVPETFSKYSSSIKVESLLTAISEVRKEIEDLQYREQKRIAIQGIITAIKYIPHSSATESASASETLRNANRPSTSQAARVEIQERNGKRHQDDEPVNSQYFQTTSTNLSLSNKIRILQGPHANPVAVPQPGASVQTKGIKPGMPSIFNRRANINANLQGKARKTISDRWESQLWREKKFGLIDHLHYSRVYPESIPRKFMFEHRKFLSDQYNSQPAKYVPPEGRPPKLDDFKSARSLGHFEVTILGLNHEIAIDVAFLPMYCPEDIRTSQIDTLLTSMNYSCAYPQDTTGNDRLPGPRAVAGDIIKAATELDRVHIVGILDICNLGNNKVEVYLHKIYSPENTS
B4: AT2A2_HUMAN (protein, UniProt P16615 1-1042, looked up)
Sarcoplasmic/endoplasmic …: MENAHTKTVEEVLGHFGVNESTGLSLEQVKKLKERWGSNELPAEEGKTLLELVIEQFEDLLVRILLLAACISFVLAWFEEGEETITAFVEPFVILLILVANAIVGVWQERNAENAIEALKEYEPEMGKVYRQDRKSVQRIKAKDIVPGDIVEIAVGDKVPADIRLTSIKSTTLRVDQSILTGESVSVIKHTDPVPDPRAVNQDKKNMLFSGTNIAAGKAMGVVVATGVNTEIGKIRDEMVATEQERTPLQQKLDEFGEQLSKVISLICIAVWIINIGHFNDPVHGGSWIRGAIYYFKIAVALAVAAIPEGLPAVITTCLALGTRRMAKKNAIVRSLPSVETLGCTSVICSDKTGTLTTNQMSVCRMFILDRVEGDTCSLNEFTITGSTYAPIGEVHKDDKPVNCHQYDGLVELATICALCNDSALDYNEAKGVYEKVGEATETALTCLVEKMNVFDTELKGLSKIERANACNSVIKQLMKKEFTLEFSRDRKSMSVYCTPNKPSRTSMSKMFVKGAPEGVIDRCTHIRVGSTKVPMTSGVKQKIMSVIREWGSGSDTLRCLALATHDNPLRREEMHLEDSANFIKYETNLTFVGCVGMLDPPRIEVASSVKLCRQAGIRVIMITGDNKGTAVAICRRIGIFGQDEDVTSKAFTGREFDELNPSAQRDACLNARCFARVEPSHKSKIVEFLQSFDEITAMTGDGVNDAPALKKAEIGIAMGSGTAVAKTASEMVLADDNFSTIVAAVEEGRAIYNNMKQFIRYLISSNVGEVVCIFLTAALGFPEALIPVQLLWVNLVTDGLPATALGFNPPDLDIMNKPPRNPKEPLISGWLFFRYLAIGCYVGAATVGAAAWWFIAADGGPRVSFYQLSHFLQCKEDNPDFEGVDCAIFESPYPMTMALSVLVTIEMCNALNSLSENQSLLRMPPWENIWLVGSICLSMSLHFLILYVEPLPLIFQITPLNVTQWLMVLKISLPVILMDETLKFVARNYLEPGKECVQPATKSCSFSACTDGISWPFVLLIMPLVIWVYSTDTNFSDMFWS
B5: TOP1_HUMAN (protein, UniProt P11387 2-765, looked up)
DNA topoisomerase 1: SGDHLHNDSQIEADFRLNDSHKHKDKHKDREHRHKEHKKEKDREKSKHSNSEHKDSEKKHKEKEKTKHKDGSSEKHKDKHKDRDKEKRKEEKVRASGDAKIKKEKENGFSSPPQIKDEPEDDGYFVPPKEDIKPLKRPRDEDDADYKPKKIKTEDTKKEKKRKLEEEEDGKLKKPKNKDKDKKVPEPDNKKKKPKKEEEQKWKWWEEERYPEGIKWKFLEHKGPVFAPPYEPLPENVKFYYDGKVMKLSPKAEEVATFFAKMLDHEYTTKEIFRKNFFKDWRKEMTNEEKNIITNLSKCDFTQMSQYFKAQTEARKQMSKEEKLKIKEENEKLLKEYGFCIMDNHKERIANFKIEPPGLFRGRGNHPKMGMLKRRIMPEDIIINCSKDAKVPSPPPGHKWKEVRHDNKVTWLVSWTENIQGSIKYIMLNPSSRIKGEKDWQKYETARRLKKCVDKIRNQYREDWKSKEMKVRQRAVALYFIDKLALRAGNEKEEGETADTVGCCSLRVEHINLHPELDGQEYVVEFDFLGKDSIRYYNKVPVEKRVFKNLQLFMENKQPEDDLFDRLNTGILNKHLQDLMEGLTAKVFRTYNASITLQQQLKELTAPDENIPAKILSYNRANRAVAILCNHQRAPPKTFEKSMMNLQTKIDAKKEQLADARRDLKSAKADAKVMKDAKTKKVVESKKKAVQRLEEQLMKLEVQATDREENKQIALGTSKLNYLDPRITVAWCKKWGVPIEKIYNKTQREKFAWAIDMADEDYEF
B6: ACON_HUMAN (protein, UniProt Q99798 28-780, looked up)
Aconitate hydratase, …: QRAKVAMSHFEPNEYIHYDLLEKNINIVRKRLNRPLTLSEKIVYGHLDDPASQEIERGKSYLRLRPDRVAMQDATAQMAMLQFISSGLSKVAVPSTIHCDHLIEAQVGGEKDLRRAKDINQEVYNFLATAGAKYGVGFWKPGSGIIHQIILENYAYPGVLLIGTDSHTPNGGGLGGICIGVGGADAVDVMAGIPWELKCPKVIGVKLTGSLSGWSSPKDVILKVAGILTVKGGTGAIVEYHGPGVDSISCTGMATICNMGAEIGATTSVFPYNHRMKKYLSKTGREDIANLADEFKDHLVPDPGCHYDQLIEINLSELKPHINGPFTPDLAHPVAEVGKVAEKEGWPLDIRVGLIGSCTNSSYEDMGRSAAVAKQALAHGLKCKSQFTITPGSEQIRATIERDGYAQILRDLGGIVLANACGPCIGQWDRKDIKKGEKNTIVTSYNRNFTGRNDANPETHAFVTSPEIVTALAIAGTLKFNPETDYLTGTDGKKFRLEAPDADELPKGEFDPGQDTYQHPPKDSSGQHVDVSPTSQRLQLLEPFDKWDGKDLEDLQILIKVKGKCTTDHISAAGPWLKFRGHLDNISNNLLIGAINIENGKANSVRNAVTQEFGPVPDTARYYKKHGIRWVVIGDENYGEGSSREHAALEPRHLGGRAIITKSFARIHETNLKKQGLLPLTFADPADYNKIHPVDKLTIQGLKDFTPGKPLKCIIKHPNGTQETILLNHTFNETQIEWFRAGSALNRMKELQQ
B7: SND1_HUMAN (protein, UniProt Q7KZF4 2-910, looked up)
Staphylococcal nuclease …: ASSAQSGGSSGGPAVPTVQRGIIKMVLSGCAIIVRGQPRGGPPPERQINLSNIRAGNLARRAAATQPDAKDTPDEPWAFPAREFLRKKLIGKEVCFTIENKTPQGREYGMIYLGKDTNGENIAESLVAEGLATRREGMRANNPEQNRLSECEEQAKAAKKGMWSEGNGSHTIRDLKYTIENPRHFVDSHHQKPVNAIIEHVRDGSVVRALLLPDYYLVTVMLSGIKCPTFRREADGSETPEPFAAEAKFFTESRLLQRDVQIILESCHNQNILGTILHPNGNITELLLKEGFARCVDWSIAVYTRGAEKLRAAERFAKERRLRIWRDYVAPTANLDQKDKQFVAKVMQVLNADAIVVKLNSGDYKTIHLSSIRPPRLEGENTQDKNKKLRPLYDIPYMFEAREFLRKKLIGKKVNVTVDYIRPASPATETVPAFSERTCATVTIGGINIAEALVSKGLATVIRYRQDDDQRSSHYDELLAAEARAIKNGKGLHSKKEVPIHRVADISGDTQKAKQFLPFLQRAGRSEAVVEYVFSGSRLKLYLPKETCLITFLLAGIECPRGARNLPGLVQEGEPFSEEATLFTKELVLQREVEVEVESMDKAGNFIGWLHIDGANLSVLLVEHALSKVHFTAERSSYYKSLLSAEEAAKQKKEKVWAHYEEQPVEEVMPVLEEKERSASYKPVFVTEITDDLHFYVQDVETGTQLEKLMENMRNDIASHPPVEGSYAPRRGEFCIAKFVDGEWYRARVEKVESPAKIHVFYIDYGNREVLPSTRLGTLSPAFSTRVLPAQATEYAFAFIQVPQDDDARTDAVDSVVRDIQNTQCLLNVEHLSAGCPHVTLQFADSKGDVGLGLVKEGLVMVEVRKEKQFQKVITEYLNAQESAKSARLNLWRYGDFRADDADEFGYSR

Tested on: KDM4A-I71AzF
Assay: CASI: photo-crosslinking with HEK293T cell extracts, StrepTactin enrichment and LC-MS/MS proteomics;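 further: lysates from HEK293T cells pretreated with a KDM4 inhibitor to raise proteome methylation, affinity-purified after ±UV, gel-resolved, trypsin-digested, with exclusive unique peptides per protein averaged per condition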
Format: binding, human
Conditions: sheet "Final results but with 0.01"

Molecule | Fold change (+UV/-UV)
B1 | 0.7778
B2 | 1.5
B3 | 0
B4 | 0.75
B5 | 0
B6 | 0.4
B7 | 1.5
